Test results from doi:10.1101/2025.06.14.659664 (bioRxiv, 2025).
Substitutions are numbered along the chain they refer to. Names and notes keep the numbering of the source. One block for each binder: values may come before it.

Molecular target: UbcH8 (UniProt O14933 1-153)
Assay: NMR titration

Chain of UbcH8 (O14933 whole entry): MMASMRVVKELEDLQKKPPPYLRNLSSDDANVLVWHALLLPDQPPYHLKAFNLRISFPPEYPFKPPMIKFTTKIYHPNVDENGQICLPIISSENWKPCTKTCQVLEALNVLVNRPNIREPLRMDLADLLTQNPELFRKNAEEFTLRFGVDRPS

binding result: binds
B1: GBI-Uba7-UFD fusion protein (human Uba7 ubiquitin-fold domain, residues 903-1011), wild type (domain or fragment, UniProt P41226 903-1011, looked up)
chain: IQTFHHLKWTSWDRLKVPAGQPERTLESLLAHLQEQHGLRVRILLHGSALLYAAGWSPEKQAQHLPLRVTELVQQLTGQAPAPGQRVLVLELSCEGDDEDTAFPPLHYE

binding result: binds
B2: GBI-Uba7-UFD A1004C mutant (domain or fragment, human, UniProt P41226 903-1011, looked up)
chain: B1 chain with A102C
